Reference: the DeepSol protein solubility set

test: soluble on expression in E. coli; label from the status in PepcDB or PDB records

Row | Sequence | soluble on expression in E. coli
1 | MSAGTRTQQQPPPKQRHPFQPACRLWCPLSPPSVLPFCASTCRPPPQDRQVRQCGGRIALRVAISPLSSSHSVLDGISHLASRMSDHADIDEAARKRLRAEAPFVSPLPLPPPAAPLLPCDASHNGESAEAAGHILVASAPPHKEDSVASTLHTSAKEARFEGRCMPPSFHSLLGEYEVPEEAKDVEDLVGGHEDFSDLPEARREALLQSVRTLVKKAAGASSAEQLEHLRVKGSRLHGFKDTARKSELTAAYRQLVREGAIAENAVVEALLIRKKGKSHSGVLVVTVFMGPGEFSCPKDCHYCPNQPGIARSYLLKEPGVLRGFRNGWDPISQFYDRASALENNGHVVDKIELIILGGTFSFYPQRYAEEFMTASFYAANTYYDSAPLRPMRSLAEELTLNEGARCRIIGITAETRPDYISARELRRFRSLGITRVQLGIQHLDDDILNLINRDCPTAKTVVAIQRLLDAGFKVDAHWMPDLPGSSFEKDMELFETLFSAENESFQVDQWKVYPTATVPFTKISEWYAQGQYKPYAELDNGAYMVKLLVYIMEHCPYRIRLNRIIRDIPTTYIMGGEKRCNLRQVIEAEMRARHIRCKDIRERECKGNPVDRANTHLFTDEFRASEGTEFYLSVENKDRTQLYGHLRLRLRDDASREESNILPVLRGCALVRELHTYGKLIAVSQQNTGRETQHVGVGTQLMREAERIAKERGYHRMAVIAGVGVRRYYAKLGYRLEDTYMVKELDEQASAITEDQVVQDDDNENSAYSSFLSTIKSFFGFHKNTP | not soluble
2 | MAIFRDQAENHVEHDRSIEDRRRHRQLVEKSIKENLGDILSEESIIGETKNKKYKIPIRGIKEYQFIYGANNKGVTTGTGEERRGDRISSDKRKAISNNKAGNQEGKDIYETEITLEELMDYIVEDLDLPNLDRKKYSEIIVESAAKKRGYQKYGVRPRLAKKKTVMCKIARKQGKKRALREIGEEAEIGRFPFREDDLRYYKVKKHPKKESNAVMIFIMDVSGSMDNTKKYLARSFFFVLSRFIRRKYNNVAFEFISHTTTAKNVNEYEFFHKGESGGTYISSGINAAIDLIKEKYNPGVWNIYPFYASDGDNWSEDNEKAMEAVNEISDLSNMFGYIELLPSTYSTTMFYRFKKEISKENFVSVTVKEKKDLWNAIKYMLSEELQEKNKELEHHHHHH | not soluble
3 | MSQSNTLTVQILDKEYCINCPDDERANLESAARYLDGKMREIRSSGKVIGADRVAVMAALNITHDLLHRKERLDQESSSTRERVRELLDRVDRALANPADAGEA | soluble
4 | MCGGRGTRLDTKVEKPLFRIGGVPMVGRVVGALEDSAVERIIAATSPNAPETQSCLDVPCIETPGEGYVADLNAALNDDRLSQPVLTVAADLPLLDGEIVDRVLDEHNGGSLTVLVPASLKRALGVSDDTTFDNGGREVAPTGVNVVSDGPDDAWLTRDRRVAVNVNTLADARVAEQWLLEHHHHHH | not soluble
5 | GSGTGAGEGHEGYVTRKHEWDSTTKKASNRSWDKVYMAAKAGRISFYKDQKGYKSNPELTFRGEPSYDLQNAAIEIASDYTKKKHVLRVKLANGALFLLQAHDDTEMSQWVTSLKAQSDSTA | soluble
6 | MTIDLNAMLAKRAEVLGEGNKFDVKLGNKTFYFVAPELASSEWNDRHQAFLEDIRDGLMTSATAREEFLGLALEDQAEEFAEAADNIGVDPFIIAQMAFQEHAEYVGKTQSQKSLNRTQRRAKQR | not soluble
7 | MQYDYLEALVKDLSLYKIKTEINMKNLRIWQTLSLWLVLLVTSLPLSAQTALLEKLGKIADITGTQPLESTEFVEKYVAYFTQPLDHRHPEKGSFSQRVIVSHVGFDRPTVMVTEGYGASYALGANYREELSKLFNTNMIFVEYRYFLESTPTPKDWQYLTAENSAEDLHAVREAFRSIYPGKWIATGISKGGQTAMLYRTFFPEDVDISVPYVAPLCYGVEDGRHEPFLKMVSTPEARKKIEDFQLEVLKRKPTLLPRFEKYCAGKKYKFRAPVEEIYDYSVLEYSFSIWQWGTPVDQIPAVTASDDELFKHLLAISEPSYFEEEGANTSFFVQAARELGYYGYDIRPFKKYLTIKTSKDYLKRLMLPEELGDMKFDKTLSRKIIHFLKNNDPKMIFIYGQNDPWTAAGVTWLKGKKNIHVFVEPNGSHLARIGTLPQKEKEEAIGLIKKWLEE | not soluble
